A short description of this series: soluble on expression in E. coli; label from the status in PepcDB or PDB records.
With “MSLRDQFQLAIRVADLLQHITQMKRGQGYGFKEEYEALPEGQTASWDTAKEDENRNKNRYGNIISYDHSRVRLLVLDGDPHSDYINANYIDGYHRPRHYIATQGPMQETVKDFWRMIWQENSASIVMVTNLVEVGRVKCVRYWPDDTEVYGDIKVTLIETEPLAEYVIRTFTVQKKGYHEIRELRLFHFTSWPDHGVPCYATGLLGFVRQVKFLNPPEAGPIVVHCSAGAGRTGCFIAIDTMLDMAENERVVDIFNCVRELRAQRVNLVQTEEQYVFVHDAILEACLCGNTAIPVCEFRSLYYNISRLDPQTNSSQIKDEFQTLNIVTPRVRPEDCSIGLLPRNHDKNRSMDVLPLDRCLPFLISVDGESSNYINAALMDSHKQPAAFVVTQHPLPNTVADFWRLVFDYNCSSVVMLNEMDTAQFCMQYWPEKTSGCYGPIQVEFVSADIDEDIIHRIFRICNMARPQDGYRIVQHLQYIGWPAYRDTPPSKRSLLKVVRRLEKWQEQYDGREGRTVVHCLNGGGRSGTFCAICSVCEMIQQQNIIDVFHIVKTLRNNKSNMVETLEQYKFVYEVALEYLSSFEGHHHHHH”, the “soluble on expression in E. coli” value is “soluble”.
With “KLNRAIGVIDSGVGGLTVAKELIRQLPKERIIYLGDTARCPYGPRSREEVRQFTWEMTEHLLDLNIKMLVIACNTATAVVLEEMQKQLPIPVVGVIHPGSRTALKVTNTYHVGIIGTIGTVKSGAYEEALKSINNRVMVESLACPPFVELVESGNFESEMAYEVVRETLQPLKNTDIDTLILGCTHYPILGPVIKQVMGDKVQLISSGDETAREVSTILYHSKMLNEGEEQSDHLFLTTGKIGLFKEIASKWFGQPIENVKHIHLEK” the entry was “soluble”.
As to “MGSDKIHHHHHHVSVDDLIDTTSLELLVAPAPLADFLRQSSAMHRHLCPRQVLGARMGMYAGELLGLTLPQKNKRLYTFVETDGCFADGVSVTTGCWLGRRTMRLMDEGKVAATFVDTQTGQAFRIAPRPNVRDLARQYAPNARSRWHAYLIAYQLMPLTDLLIAQPITLTVDLKAIISRNGLRTTCDHCGEEIINAREVIRDGQTLCRTCGGEGYYTITG”, the “soluble on expression in E. coli” value is on record as “not soluble”.
“SNAMSVVIYHNPKCSKSRETLALLENQGIAPQVIKYLETSPSVEELKRLYQQLGLNEVRAMMRCKEELYKELNLGDSQLSDDALFAAMAEHPKLIERPIVVCNGQARHGRPPEQVLEIL”: the “soluble on expression in E. coli” value is “soluble”.
Next, “MGSDKIHHHHHHMKILIDATAALMGGGQTYLINLLNYTEILEHDIIILSPKKLTLPSIQNIHRIDVDKSLENPFIRAVWMRRYLPDLIKERKVDILFCPGGLITKGIPSNCVKVTMFRNMIPFDLKQRVKYPLGYMRFRNWLLERLLLDSMIEADLVIFISEYASKVIKKRAKKKLRNTVIIPHGLSAEFRIFDKKAIPRPQWLPAEDYLLYVSILDVYKAQIELIQGFALLKKWRQTSEKLLLVGPDEERSYYTKMIKKEIVKHGLQNDVIITGPVPYNELPALYYHAKVNIFASECENCPNILLEALGAGRPTLVSDCEPMPEFGGDSVEYFDPTSPEDFANSIIRFIDDENKMKELAKKAGERSLLFDWEKVGRLTWQSIENIYNSKTINM”: “not soluble”; “GPGSMLRSLFGRPSLAVLNNYGHMARPASPLLCSQRGVFADRVRAGMILKVDKRYYRVLANTRSQKGQNAASFNIKLTEVGTGRKKEVTAGHGHDFAEARAERVRLLFSGFDDDDMACFVYPEHSSDAGKEVNIPGDSLPELQQKFLCCGMPVDVLHIMPDDDESPNEKDIWSEVVMPSNYTYTVEKLTLKGMYKMAAFVECDGIIGVNDSVQVNDKVKVVIKPDGTAAFGGRAT”: “not soluble”; “MTLKMGRVKWFNQSEGYGFISPHDGGSDVYVNKTAIANTKNKSLNEGQDVEFSTYRSIHGPSAADVIAF”: “not soluble”.
“MGSDKIHHHHHHMKQIGIIGCGWFGLPLAQALKQLGHKVIGTKRSIEGCEQLASLGITACPLDLNDDIFYNEAFANNTFANNINELLECQVLVINIPPGLRKKAGKAESRYLEQLSNLVHFIGPRGYQKLVFISTTGVYPAGDDAELPLSEADAKAHNDASEILLNAEALFAPMDNSCILRFAGLVGPNRHPGRFFAGKTGISGANVAVNLVHLDDCIGAVIKVINADKTAPVYNIVAPEHPSRGEFYPLATTHLGLVAPVFNQEVMPTKVISGALICQQLGFIYQYPDPLKMLYAC”: the “soluble on expression in E. coli” value is reported as “not soluble”.
Consider “MAVIKQDDLIQSVADALQFISYYHPVDFIQAMHEAYLREESPAARDSMAQILINSRMCATGHRPICQDTGIVTVFVRVGMDVRWDGATMSVDDMINEGVRRAYNLPENVLRASILADPAGARKNTKDNTPAVIHYSIVPGDKVEVDVAAKGGGSENKSKMAMLNPSDSIVDWVLKTVPTMGAGWCPPGMLGIGIGGTAEKAAVMAKEVLMDPIDIHELKARGPQNRIEELRLELFEKVNQLGIGAQGLGGLTTVLDVKIMDYPTHAASLPVCMIPNCAATRHAHFVLDGSGPAELEAPSLDAYPEIVWEAGPSARRVDLDKITPEEVQSWKPGETLLLNGKMLTGRDAAHKRMVDMLNKGETLPVDLKGRFIYYVGPVDPVGDEVVGPAGPTTATRMDKFTRQILEQTGLLGMIGKSERGPIAIEAIKDNKAVYLMAVGGAAYLVAQAIKKSKVLAFAELGMEAIYEFEVKDMPVTVAVDTNGESVHITGPAVWQ”, for which the “soluble on expression in E. coli” value was “not soluble”.
For the sequence “MALAEADDGAVVFGEEQEALVLKSWAVMKKDAANLGLRFFLKVFEIAPSAKQMFSFLRDSDVPLEKNPKLKTHAMSVFVMTCEAAAQLRKAGKVTVRETTLKRLGATHLRYGVADGHFEVTGFALLETIKEALPADMWSLEMKKAWAEAYSQLVAAIKREMKPDA”, the “soluble on expression in E. coli” value is given as “soluble”.
As for “MAHHHHHHMNILHKIFTPGSKSKKTLLHCDAELGDRQSHSSSKVSTAVQVKSKLTAASSDDDDCGPLMRSVSMTVVSDPVPSSFKTNSSFANQSRPTQGPASFKSARLANSFSNASCHLERHHQHTAALASSVSRHNQRSLFDKIHSSGSFAVGETTVSGGSFTANGGTVNLWRLPWTQQKVTMCPNCHRPRQRDRTMQVSRASYTLQETTIENGMGDDMSEANEDMSYSDSEGMGGPMSDSVTCRCGVVSEGDAPLDYDDSAEATEEHPKLFVVETQNPSAVQLPGTIAEASDSEGEGREDVRRSYKLSLVSSPTPTSLRRRAPRVQPLLSGASPQTNTASVPKRVTHWLHEQQTSEARVVLKPKAAR”, the “soluble on expression in E. coli” value is “not soluble”.
Next, “MKPSVILYKALPDDLLQRLQEHFTVHQVANLSPQTVEQNAAIFAEAEGLLGSNENVNAALLEKMPKLRATSTISVGYDNFDVDALTARKILLMHTPTVLTETVADTLMALVLSTARRVVEVAERVKAGEWTASIGPDWYGTDVHHKTLGIVGMGRIGMALAQRAHFGFNMPILYNARRHHKEAEERFNARYCDLDTLLQESDFVCLILPLTDETHHLFGAEQFAKMKSSAIFINAGRGPVVDENALIAALQKGEIHAAGLDVFEQEPLSVDSPLLSMANVVAVPHIGSATHETRYGMAACAVDNLIDALQGKVEKNCVNPHVAD”: “soluble”; “AVVATDAYVKRTNIFYHASSSRLLAVGHPYYSIKKVNKTVVPKVSGYQYRVFKVVLPDPNKFALPDSSLFDPTTQRLVWACTGLEVGRGQPLGVGVSGHPLLNKYDDVENSGGYGGNPGQDNRVNVGMDYKQTQLCMVGCAPPLGEHWGKGTQSSNTSVQNGDCPPLELITSVIQDGDMVDTGFGAMNFADLQTNKSDVPLDICGTVCKYPDYLQMAADPYGDRLFFYLRKEQMFARHFFNRAGTVGEPVPDDLLVKGGNNRSSVASSIYVHTPSGSLVSSEAQLFNKPYWLQKAQGHNNGICWGNHLSVTVVDTTRSTNMTLCASVSKSATYTNSDYKEYMRHVEEFDLQFIFQLCSITLSAEVMAYIHTMNPSVLEDWNGGSGGKQDPYKDMSFWEVNLKEKFSSELDQFPLGRKFLLQSGY”: “soluble”; “AEFFPEIPKVQFEGKESTNPLAFKFYDPEEIIDGKPLKDHLKFSVAFWHTFVNEGRDPFGDPTADRPWNRYTDPMDKAFARVDALFEFCEKLNIEYFCFHDRDIAPEGKTLRETNKILDKVVERIKERMKDSNVKLLWGTANLFSHPRYMHGAATTCSADVFAYAAAQVKKALEITKELGGEGYVFWGGREGYETLLNTDLGFELENLARFLRMAVDYAKRIGFTGQFLIEPKPKEPTKHQYDFDVATAYAFLKSHGLDEYFKFNIEANHATLAGHTFQHELRMARILGKLGSIDANQGDLLLGWDTDQFPTNVYDTTLAMYEVIKAGGFTKGGLNFDAKVRRASYKVEDLFIGHIAGMDTFALGFKVAYKLVKDGVLDKFIEEKYRSFREGIGRDIVEGKVDFEKLEEYIIDKETIELPSGKQEYLESLINSYIVKTILELR”: “soluble”.
Next, “LKISTKGRYGLEAIVDLAIHSSEGRVSLKSIAERCGMSEAYILQIFLILRRAGIVESIRGAQGGYVLARDPSQITVGEILTVLEGPLAPVPCIAEKTKRSKSSCERYENCTARSFWEKIMNTLNDVANSITVEDLVKCYNSTVSQNTELEYYI”: “soluble”; “FLILGTLFSSSLYADIDNAPLHALAKHQGFFFFFSSSCPHCQRFAPTLKRLSQHYGFSVVAISVDGGFLPSFPDAVMNEGQTKVFQVSVYPSLFLINPKSQVASLVTEGTIDEGELTNRLLKI”: “not soluble”; “MARPIFSQEIDPYSQEVPKDVAISPSSKFDIYVEAPGEAPFEEADSPAMEYDRELAHHYSHKQLDFLEACSEKPSSKCGNEVFKNMLDETVPITDECCRDILKIGKDCHLGLVKLIFATYEYKNKASKGIPKSKQTWNECVFRVGSKIGAPVSFEQ”: “soluble”.
“MSLNISFIASNTLHELAAFLEKLNNIREHHVGFCGEKGSEIKATLERDFSDIGVSKSFIVGYDGMEIKGAVGLDVDTKEESAEVWGPFVDEDDPEMWLDTATILWQQLIDSLTVPVSTFQFFINQHNVNAKKFILKLNGMEKGDHDILTCDRTQFYPPLNHDVRLFTNNHTQSFKKLHDSLFPQTYYDAEEILKKINEPTNKLLIIEKEQIVIGYAYVEVEPEHGEGQIEYIGIAPDYRRQGLATQLLTNALHVLFSYPTVEDITLCVSKQNTKAIRLYQAAGFKKERQLTYFELNVDGLDNRRGRGEGHHHHHH”: the “soluble on expression in E. coli” value is recorded as “soluble”.
Take “MEYSRDSAEMMMETKRNVYSLEDNKIKRHKSSDLSFSSKERKDKLAERISALQQLVSPYGKTDTASVLLEGMQYIQFLQEQVKVLSAPYLQATPSTTEEEVEEYSLRSKGLCLVPLEYTSEVAQTNGADIWAPVKTPTSSHAFNLSSSNSPFQ”: the “soluble on expression in E. coli” value is given as “not soluble”.
As for “MAMTKNTRFSPEVRQRAVRMVLESQGEYDSQWATICSIAPKIGCTPETLRVWGLRQHERDTGGGDGGLTTAERQRLKEPERENRELRRSNDILRQASAYFAKAEFDRLWKKLEHHHHHH”, the “soluble on expression in E. coli” value is given as “soluble”.
With “MRNAHAVEAMRVPHPVRGTVSLVEWHMARARNHINVLEENMTLLMEQAHANESLFYRLLHLQSRLVAADSLDEMLVRFHRWARDLGLAGATLRLFPDRWRLGAPSRYTHLALNRQAFEPLRIQRLGQSQHYLGPLNGPELLVVLEHHHHHH” the entry was “soluble”; with “MGHHHHHHSHMGKWHVGGRRGSPRQWGATARGRDLEAVRRGGCGSVGRRRQRRRRRRRRMRRMRRMWATQGLAVRVALSVLPGSRALRPGDCEVCISYLGRFYQDLKDRDVTFSPATIENELIKFCREARGKENRLCYYIGATDDAATKIINEVSKPLAHHIPVEKICEKLKKKDSQICELKYDKQIDLSTVDLKKLRVKELKKILDDWGETCKGCAEKSDYIRKINELMPKYAPKAASAPTDL”, “not soluble”.

The record behind these values is the DeepSol protein solubility set.
